Results as given in the supplement of paper PMC7877785.
± gives the uncertainty stated by the source.

Assay: self-splicing fitness, log relative to wild type (ln ratio); higher = more splicing; Tetrahymena group I intron in knt gene, E. coli kanamycin selection, DiMSum; sequences stand for … in CUCUCU…GGAGGGAAAAGUUAUCAGGCAUGCACCUGGUAGCUAGUCUUUAAACCAAUAGAUUGCAUCGGUUUAAAAGGCAAGACCGUCAAAUUGCGGGAAAGGGGUCAACAGCCGUUCAGUACCAAGUCUCAGGGGAAACUUUGAGAUGGCCUUGCAAAGGGUAUGGUAAUAAGCUGACGGACAUGGUCCUAACCACGCAGCCAAGUCCUAAGUCAACAGAUCUUCUGUUGAUAUGGAUGCAGUUCACAGACUAAAUGUCGGUCGGGGAAGAUGUAUUCUUCUCAUAAGAUAUAGUCGGACCUCUCCUUAAUGGGAGCUAGCGGAUGAAGUGAUGCAACACUGGAGCCGCUGGGAACUAAUUUGUAUGCGAAAGUAUAUUGAUUAGUUUUGGAGUACUCGUGGUCG
In short: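 Colonies from six replicate transformations of E. coli BL21(DE3) were pooled and amplicon-sequenced on an Illumina HiSeq 2500. The library placed an intron with all eight P1ex-region nucleotides randomised inside the knt kanamycin-resistance gene on pET-22b(+), and cells grew overnight at 37°C or 30°C on LB agar with or without 25 μg/mL kanamycin (plus 100 μg/mL carbenicillin, 50 μM IPTG, 0.2% rhamnose). Fitness is the DiMSum error-weighted combination of wild-type-normalised replicate fold changes, kanamycin versus none.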

| Sequence | self-splicing fitness (ln) (30 °C) | self-splicing fitness (ln) (37 °C) |
| --- | --- | --- |
| UACUAGCAAUAUUACGGGGA | -1.37 ± 0.14 | -0.992 ± 0.12 |
| UACUAGCAAUAUUACGGUCG | -0.0757 ± 0.12 | 0.338 ± 0.16 |
| UACUAGCAAUAUUACGUAUG | -3.59 ± 0.26 | -1.8 ± 0.23 |
| UACUAGCAAUAUUACGUGAG | -3.38 ± 0.13 | -2.56 ± 0.23 |
| UAGAAGCAAUAUUACGAAUA | -1.14 ± 0.12 | -0.376 ± 0.12 |
| UAGAAGCAAUAUUACGAAUC | -3.48 ± 0.4 | -2.65 ± 0.36 |
| UAGAAGCAAUAUUACGAAUG | -0.651 ± 0.071 | -0.298 ± 0.09 |
| UAGAAGCAAUAUUACGACAA | -0.512 ± 0.1 | -0.213 ± 0.11 |
| UAGAAGCAAUAUUACGACCG | -0.345 ± 0.18 | -0.138 ± 0.25 |
| UAGAAGCAAUAUUACGAGAG | -3.63 ± 0.28 | -1.46 ± 0.34 |
| UAGAAGCAAUAUUACGAGCU | -3.2 ± 0.25 | -1.18 ± 0.2 |
| UAGAAGCAAUAUUACGAGGC | – | -2.21 ± 0.42 |
| UAGAAGCAAUAUUACGAGUG | -0.527 ± 0.048 | -0.505 ± 0.071 |
| UAGAAGCAAUAUUACGAUCA | -0.731 ± 0.064 | 0.138 ± 0.086 |
| UAGAAGCAAUAUUACGCAAC | -1.44 ± 0.18 | -2.33 ± 0.42 |
| UAGAAGCAAUAUUACGCACC | -2.13 ± 0.27 | -1.44 ± 0.25 |
| UAGAAGCAAUAUUACGCGAA | -1.61 ± 0.18 | -0.748 ± 0.17 |
| UAGAAGCAAUAUUACGCUCA | 0.205 ± 0.16 | -0.337 ± 0.18 |
| UAGAAGCAAUAUUACGGAUC | -2.24 ± 0.12 | -1.49 ± 0.17 |
| UAGAAGCAAUAUUACGGCAG | -0.136 ± 0.12 | 0.24 ± 0.16 |
| UAGAAGCAAUAUUACGGCGC | -1.94 ± 0.19 | -0.275 ± 0.3 |
| UAGAAGCAAUAUUACGGCGU | -0.78 ± 0.077 | -0.678 ± 0.11 |
| UAGAAGCAAUAUUACGGGCA | -1.17 ± 0.16 | -0.144 ± 0.12 |
| UAGAAGCAAUAUUACGUCGG | -0.813 ± 0.073 | -0.306 ± 0.091 |
| UAGAAGCAAUAUUACGUGCA | -0.492 ± 0.087 | -0.0303 ± 0.093 |
| UAGAAGCAAUAUUACGUGUC | -3.27 ± 0.22 | -2.31 ± 0.23 |

| Sequence | self-splicing fitness (ln) (30 °C) | self-splicing fitness (ln) (37 °C) |
| --- | --- | --- |
| UAGAAGCAAUAUUACGUUAA | -3.14 ± 0.16 | -1.39 ± 0.15 |
| UAGCAGCAAUAUUACGACGA | -0.341 ± 0.07 | 0.256 ± 0.079 |
| UAGCAGCAAUAUUACGAGAG | -2.8 ± 0.2 | -3.15 ± 0.29 |
| UAGCAGCAAUAUUACGAGGU | -3.43 ± 0.15 | -1.7 ± 0.13 |
| UAGCAGCAAUAUUACGAUAC | -4.05 ± 0.4 | -2.2 ± 0.33 |
| UAGCAGCAAUAUUACGCGGA | -0.908 ± 0.079 | -0.843 ± 0.082 |
| UAGCAGCAAUAUUACGCUGC | -2.86 ± 0.35 | -2.2 ± 0.32 |
| UAGCAGCAAUAUUACGCUGU | -3.59 ± 0.25 | -3.42 ± 0.35 |
| UAGCAGCAAUAUUACGGAGA | -3.24 ± 0.33 | -2.18 ± 0.14 |
| UAGCAGCAAUAUUACGGGGA | -2.85 ± 0.2 | -1.73 ± 0.12 |
| UAGCAGCAAUAUUACGGUGA | -0.912 ± 0.08 | -0.0764 ± 0.096 |
| UAGCAGCAAUAUUACGUCCU | -1.1 ± 0.068 | -0.435 ± 0.087 |
| UAGCAGCAAUAUUACGUCGC | -4.47 ± 0.24 | -2.73 ± 0.22 |
| UAGCAGCAAUAUUACGUCUC | -1.96 ± 0.17 | -0.915 ± 0.15 |
| UAGCAGCAAUAUUACGUGCG | -0.801 ± 0.076 | 0.26 ± 0.081 |
| UAGCAGCAAUAUUACGUGGU | -3.87 ± 0.2 | -2.79 ± 0.16 |
| UAGGAGCAAUAUUACGAAUC | – | -2.02 ± 0.26 |
| UAGGAGCAAUAUUACGACUU | -0.556 ± 0.14 | 0.485 ± 0.19 |
| UAGGAGCAAUAUUACGAGCC | -3.1 ± 0.3 | -2.82 ± 0.47 |
| UAGGAGCAAUAUUACGAGCG | -3.58 ± 0.4 | -1.31 ± 0.35 |
| UAGGAGCAAUAUUACGAUUU | -2.44 ± 0.15 | -1.4 ± 0.24 |
| UAGGAGCAAUAUUACGCUUA | -1.49 ± 0.18 | -0.834 ± 0.27 |
| UAGGAGCAAUAUUACGGCAA | – | -1.07 ± 0.2 |
| UAGGAGCAAUAUUACGGCGA | -1.51 ± 0.17 | -1.46 ± 0.18 |
| UAGGAGCAAUAUUACGGGUU | -4.52 ± 0.42 | -2.56 ± 0.27 |
| UAGGAGCAAUAUUACGUAGA | -1.5 ± 0.2 | -1.06 ± 0.16 |

| Sequence | self-splicing fitness (ln) (30 °C) | self-splicing fitness (ln) (37 °C) |
| --- | --- | --- |
| UAGGAGCAAUAUUACGUCCG | -0.262 ± 0.28 | 1.13 ± 0.28 |
| UAGGAGCAAUAUUACGUGGU | -3.87 ± 0.29 | -2.26 ± 0.24 |
| UAGGAGCAAUAUUACGUGUG | -2.86 ± 0.15 | -1.72 ± 0.15 |
| UAGGAGCAAUAUUACGUUAA | -1.4 ± 0.28 | -2.55 ± 0.39 |
| UAGGAGCAAUAUUACGUUGU | -3.31 ± 0.26 | -2.35 ± 0.23 |
| UAGUAGCAAUAUUACGAAAC | – | -2.13 ± 0.45 |
| UAGUAGCAAUAUUACGAAGU | -2.42 ± 0.24 | -2.07 ± 0.33 |
| UAGUAGCAAUAUUACGAAUA | -1.33 ± 0.23 | -0.977 ± 0.21 |
| UAGUAGCAAUAUUACGAAUC | -2.9 ± 0.48 | – |
| UAGUAGCAAUAUUACGAAUU | -4.36 ± 0.36 | -2.27 ± 0.27 |
| UAGUAGCAAUAUUACGACGA | -0.284 ± 0.18 | 0.242 ± 0.16 |
| UAGUAGCAAUAUUACGACGU | -1.23 ± 0.11 | -0.175 ± 0.095 |
| UAGUAGCAAUAUUACGAGAC | – | -1.37 ± 0.39 |
| UAGUAGCAAUAUUACGAGCG | -0.586 ± 0.095 | 0.438 ± 0.12 |
| UAGUAGCAAUAUUACGAUAA | -3.02 ± 0.36 | -1.18 ± 0.2 |
| UAGUAGCAAUAUUACGAUGG | -2.93 ± 0.12 | -1.54 ± 0.11 |
| UAGUAGCAAUAUUACGAUUU | -1.45 ± 0.1 | -0.988 ± 0.12 |
| UAGUAGCAAUAUUACGCAAG | -2.78 ± 0.45 | -1.25 ± 0.24 |
| UAGUAGCAAUAUUACGCAUU | -3.97 ± 0.21 | -1.52 ± 0.14 |
| UAGUAGCAAUAUUACGCCGG | -1.64 ± 0.21 | -0.466 ± 0.24 |
| UAGUAGCAAUAUUACGCGGA | -3.56 ± 0.47 | -0.643 ± 0.17 |
| UAGUAGCAAUAUUACGCGUC | -3.22 ± 0.38 | -1.88 ± 0.36 |
| UAGUAGCAAUAUUACGCUUG | -0.659 ± 0.092 | -0.506 ± 0.13 |
| UAGUAGCAAUAUUACGGAAC | -2.97 ± 0.3 | -3.42 ± 0.42 |
| UAGUAGCAAUAUUACGGGAA | -2.79 ± 0.32 | -1.65 ± 0.29 |
| UAGUAGCAAUAUUACGGUCC | – | -1.53 ± 0.35 |
